Two molecules from paper PMC5578693, “The role of the C-terminal D0 domain of flagellin in activation of Toll like receptor 5” (PLoS Pathogens, 2017) can be followed below.

The target in experiment [1] is soluble hTLR5 ectodomain fused to the Fc region of human IgG1 (human) (UniProt O60602).
Experiment [2] has as its target T1, soluble hTLR5 ectodomain fused to the Fc region of human IgG1 (human, UniProt O60602 21-639).
T1 construct: human Toll-like receptor 5, ectodomain; UniProtKB O60602; In the functional rows this molecule stands for human TLR5, which was there full length on HEK293 cells (pUNO-hTLR5) or endogenous in A549 cells; also called hTLR5-Fc; source: bought: Invivogen
Put plainly: co-IP; 10 ug hTLR5-Fc bound to protein A-coupled Dynabeads (control: beads with water only); 20 ug wt or mutant flagellin added, 1 h at room temperature; washed 3 times with 1 x PBS, 0.02% Tween 20, pH 7.5; eluted in 0.1% SDS at 95 C; flagellin detected by Western blot with anti-His antibodies. The settings on record: both partners purified.

Chain of soluble hTLR5 ectodomain fused to the Fc region of human IgG1 (human) (O60602 21-639): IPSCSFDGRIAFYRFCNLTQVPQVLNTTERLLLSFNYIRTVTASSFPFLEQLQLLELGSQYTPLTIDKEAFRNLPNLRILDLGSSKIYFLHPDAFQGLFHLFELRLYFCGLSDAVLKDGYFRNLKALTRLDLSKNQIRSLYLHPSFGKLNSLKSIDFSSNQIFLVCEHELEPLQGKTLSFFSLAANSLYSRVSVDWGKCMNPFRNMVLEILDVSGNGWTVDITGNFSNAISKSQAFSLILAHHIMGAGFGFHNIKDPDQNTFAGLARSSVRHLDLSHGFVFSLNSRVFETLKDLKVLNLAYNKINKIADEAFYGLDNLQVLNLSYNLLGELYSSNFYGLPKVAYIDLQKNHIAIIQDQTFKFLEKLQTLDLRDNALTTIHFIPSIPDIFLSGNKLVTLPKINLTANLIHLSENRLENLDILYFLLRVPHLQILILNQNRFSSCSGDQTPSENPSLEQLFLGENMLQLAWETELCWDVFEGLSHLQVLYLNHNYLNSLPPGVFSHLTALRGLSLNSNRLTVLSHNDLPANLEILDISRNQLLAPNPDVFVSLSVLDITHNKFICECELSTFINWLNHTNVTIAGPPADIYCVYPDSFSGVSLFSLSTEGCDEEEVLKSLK
T1 sequence (O60602 21-639): as above

With “dimSFΔD0, two SFΔD0 domains tethered into a single polypeptide chain by a 27 amino acid peptide linker”, the TLR5 activation: NF-kB reporter in A549 cells (SEAP) and in hTLR5-transfected HEK293 cells (luciferase, 0-1000 ng/ml); lowest active concentration in experiment [1] came to 50 ng/mL.

B1: S. typhimurium flagellin FliC, wild type (natural protein, UniProt P06179 1-495, looked up)
chain: MAQVINTNSLSLLTQNNLNKSQSALGTAIERLSSGLRINSAKDDAAGQAIANRFTANIKGLTQASRNANDGISIAQTTEGALNEINNNLQRVRELAVQSANSTNSQSDLDSIQAEITQRLNEIDRVSGQTQFNGVKVLAQDNTLTIQVGANDGETIDIDLKQINSQTLGLDTLNVQQKYKVSDTAATVTGYADTTIALDNSTFKASATGLGGTDQKIDGDLKFDDTTGKYYAKVTVTGGTGKDGYYEVSVDKTNGEVTLAGGATSPLTGGLPATATEDVKNVQVANADLTEAKAALTAAGVTGTASVVKMSYTDNNGKTIDGGLAVKVGDDYYSATQNKDGSISINTTKYTADDGTSKTALNKLGGADGKTEVVSIGGKTYAASKAEGHNFKAQPDLAEAAATTTENPLQKIDAALAQVDTLRSDLGAVQNRFNSAITNLGNTVNNLTSARSRIEDSDYATEVSNMSRAQILQQAGTSVLAQANQVPQNVLSLLR
notes: flagellin FliC of S. typhimurium (SaTy), UniProt P06179; cloned into pET19b; also called SaTy; wild-type flagellin; source: E. coli BL21 (DE3) pLysS, purified (Ni-NTA); not shown: His10, N-terminal, kept
For B1, in experiment [2], the binding result is reported as “binds”.
